Experimental findings from paper PMC3695516 are described below.

In data set [1] the target is T1, human FOXP2 (truncated, WT) (human, UniProt O15409 214-715).
T1 sequence: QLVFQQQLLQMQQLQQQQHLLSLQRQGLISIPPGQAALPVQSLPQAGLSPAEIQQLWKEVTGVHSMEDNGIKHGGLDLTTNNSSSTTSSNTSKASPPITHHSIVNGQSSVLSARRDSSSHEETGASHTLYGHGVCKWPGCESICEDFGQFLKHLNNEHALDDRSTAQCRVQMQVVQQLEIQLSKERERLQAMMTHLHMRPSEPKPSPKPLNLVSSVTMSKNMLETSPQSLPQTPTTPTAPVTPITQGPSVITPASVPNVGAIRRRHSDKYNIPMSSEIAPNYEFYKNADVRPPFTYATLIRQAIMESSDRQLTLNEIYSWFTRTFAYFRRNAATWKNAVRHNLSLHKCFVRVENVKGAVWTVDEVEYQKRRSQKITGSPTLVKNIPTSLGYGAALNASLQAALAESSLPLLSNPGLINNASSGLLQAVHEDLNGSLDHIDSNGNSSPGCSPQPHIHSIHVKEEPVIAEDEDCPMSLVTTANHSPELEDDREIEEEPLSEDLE
In words: MITOMI.

Data set [2] addresses T2, chimp FOXP2 (truncated, WT) (chimpanzee, UniProt Q8MJA0 215-716).
T2 sequence: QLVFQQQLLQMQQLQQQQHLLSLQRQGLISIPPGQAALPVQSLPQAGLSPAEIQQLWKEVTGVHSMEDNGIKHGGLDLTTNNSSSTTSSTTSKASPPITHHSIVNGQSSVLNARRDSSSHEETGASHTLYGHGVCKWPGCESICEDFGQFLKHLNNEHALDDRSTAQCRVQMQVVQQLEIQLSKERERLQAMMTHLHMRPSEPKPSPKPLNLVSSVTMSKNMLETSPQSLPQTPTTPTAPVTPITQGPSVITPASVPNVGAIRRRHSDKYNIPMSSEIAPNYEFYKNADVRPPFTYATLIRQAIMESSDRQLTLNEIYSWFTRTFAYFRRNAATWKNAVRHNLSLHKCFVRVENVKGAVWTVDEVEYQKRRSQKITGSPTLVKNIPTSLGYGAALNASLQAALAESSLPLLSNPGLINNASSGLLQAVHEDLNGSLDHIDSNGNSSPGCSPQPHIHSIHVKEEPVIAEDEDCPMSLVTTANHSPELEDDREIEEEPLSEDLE
In words: MITOMI.

B1: oligonucleotide #175 (dsDNA)
DNA 1: CGCCTGTTACGGCATCAGGGCTTTGGTTTGGGCGGGCTGCTTGTTTACCAATTGTCTCCGGCGGTATGAC
DNA 2: GTCATACCGCCGGAGACAATTGGTAAACAAGCAGCCCGCCCAAACCAAAGCCCTGATGCCGTAACAGGCG
With B1, the binding result in data set [1] and in data set [2] was “binds” throughout.
